One may read the Tm as the temperature at the midpoint of the melting transition.

B1: Guanyl-specific ribonuclease Sa, P05798 (parent)
chain: DVSGTVCLSALPPEATDTLNLIASDGPFPYSQDGVVFQNRESVLPTQSYGYYHEYTVITPGARTRGTRRIITGEATQEDYYTGDHYATFSLIDQTC

This data set covers variants of B1. To be noted: Kitasatospora aureofaciens, Thermal, structure 1RGG, whole UniProt chain shown.
Setting [1] is: pH 3, 38.6 °C, CD, Glycine 30 mM.
Setting [2] is: pH 8.5, 45.9 °C, CD, Mops 30 mM.

For DVSGTVCLSALPPEATDTLNLIASDGPFPYSQAGVVFQNRESVLPTQSYGYYHEYTVITPGARTRGTRRIITGEATQEDYYTGDHYATFSLIDQTC, under “pH 7, 52.6 °C, CD, Mops 30 mM”, the “ddG of mutation (higher = less stable)” value was 6.2 kcal/mol and the “heat capacity change of unfolding” value came to 1.52 kcal/mol/K. Moreover, where the note is “pH 7, 52.6 °C, DSC, Mops 30 mM”, the “ddG of mutation (higher = less stable)” value came to 6 kcal/mol and the “heat capacity change of unfolding” value was 1.52 kcal/mol/K. For the same variant, where the note is “pH 7, CD, Mops 30 mM”, the midpoint of thermal melting (Tm) stood at 31.8 °C; the “change of melting temperature, mutant - wild type (higher = more stable)” value (“change of melting temperature, mutant” below) was -16 °C; the “unfolding enthalpy (van 't Hoff)” value was 57 kcal/mol.

DVSGTVCLSALPPEATDTLNLIASDGPFPYSQDGVVFQNRESVLPTQSYGYYHEYTVITPGARTRGTRRIITGEATQEKYYTGDHYATFSLIDQTC: under “pH 7, 52.6 °C, CD, Mops 30 mM”, the “ddG of mutation (higher = less stable)” value was -2.3 kcal/mol and the “heat capacity change of unfolding” value stood at 1.52 kcal/mol/K. For the same variant, under “pH 7, 52.6 °C, DSC, Mops 30 mM”, the “ddG of mutation (higher = less stable)” value was -2.3 kcal/mol and the “heat capacity change of unfolding” value was determined as 1.52 kcal/mol/K. Further, under “pH 7, CD, Mops 30 mM”, the Tm was found to be 55.4 °C; the “change of melting temperature, mutant” value is 7.6 °C; the “unfolding enthalpy (van 't Hoff)” value was 88 kcal/mol.

With DVSGTVCLSALPPEATDTLNLIASDGPFPYSQDGVVFQNRESVLPTQSYGYYHEYTVITPGARTRGTRRIITGEATQERYYTGDHYATFSLIDQTC, for the setting “pH 7, 52.6 °C, CD, Mops 30 mM”, the “ddG of mutation (higher = less stable)” value is -2.7 kcal/mol and the “heat capacity change of unfolding” value is 1.52 kcal/mol/K. Moreover, for the setting “pH 7, 52.6 °C, DSC, Mops 30 mM”, the “ddG of mutation (higher = less stable)” value is -2.7 kcal/mol and the “heat capacity change of unfolding” value was determined as 1.52 kcal/mol/K. For the setting “pH 7, CD, Mops 30 mM”, the Tm worked out at 56.8 °C; the “change of melting temperature, mutant” value came out at 9 °C; the “unfolding enthalpy (van 't Hoff)” value came out at 92 kcal/mol.

Turning to DVSGTVCLSALPPEATDTLNLIASDGPFPYSQDGVVFQNRESVLPTQSYGYYHEYTVITPGARTRGTRRIITGEATQEHYYTGDHYATFSLIDQTC, under “pH 7, 52.6 °C, CD, Mops 30 mM”, the “ddG of mutation (higher = less stable)” value is -1.8 kcal/mol and the “heat capacity change of unfolding” value came out at 1.52 kcal/mol/K. Besides, under “pH 7, 52.6 °C, DSC, Mops 30 mM”, the “ddG of mutation (higher = less stable)” value is -1.8 kcal/mol and the “heat capacity change of unfolding” value was 1.52 kcal/mol/K.

Take DVSGTVCLSALPPEATDTLNLIASDGPFPYSQDGVVFQNRESVLPTQSYGYYHEYTVITPGARTRGTRRIITGEATQEAYYTGDHYATFSLIDQTC: the “ddG of mutation (higher = less stable)” value by setting is: under setting [1], 0.3 kcal/mol; (pH 7, 52.6 °C, CD, Mops 30 mM) -2.8 kcal/mol; (pH 7, 52.6 °C, DSC, Mops 30 mM) -2.7 kcal/mol. In addition, the “heat capacity change of unfolding” value stood at 1.52 kcal/mol/K under setting [1]; 1.52 kcal/mol/K (pH 7, 52.6 °C, CD, Mops 30 mM); 1.52 kcal/mol/K (pH 7, 52.6 °C, DSC, Mops 30 mM). Also, the Tm by setting is: (pH 3, CD, Glycine 30 mM) 38.6 °C; (pH 7, CD, Mops 30 mM) 57 °C; (pH 8.5, CD, Mops 30 mM) 50.4 °C. For the same variant, the “change of melting temperature, mutant” value was -1.3 °C (pH 3, CD, Glycine 30 mM); 9.2 °C (pH 7, CD, Mops 30 mM); 11.7 °C (pH 8.5, CD, Mops 30 mM). For the same variant, the “unfolding enthalpy (van 't Hoff)” value stood at 75 kcal/mol (pH 3, CD, Glycine 30 mM); 94 kcal/mol (pH 7, CD, Mops 30 mM); 95 kcal/mol (pH 8.5, CD, Mops 30 mM).

For the variant DVSGTVCLSALPPEATDTLNLIASDGPFPYSQDGVVFQNRESVLPTQSYGYYHEYTVITPGARTRGTRRIITGEATQELYYTGDHYATFSLIDQTC, where the note is “pH 7, 52.6 °C, DSC, Mops 30 mM”, the “ddG of mutation (higher = less stable)” value is -2.7 kcal/mol and the “heat capacity change of unfolding” value was determined as 1.52 kcal/mol/K. Moreover, where the note is “pH 7, CD, Mops 30 mM”, the Tm turned out to be 56.6 °C; the “change of melting temperature, mutant” value amounted to 8.7 °C; the “unfolding enthalpy (van 't Hoff)” value is 75 kcal/mol.

Regarding DVSGTVCLSALPPEATDTLNLIASDGPFPYSQDGVVFQNRESVLPTQSYGYYHEYTVITPGARTRGTRRIITGEATQEIYYTGDHYATFSLIDQTC, under “pH 7, 52.6 °C, CD, Mops 30 mM”, the “ddG of mutation (higher = less stable)” value is -2.9 kcal/mol and the “heat capacity change of unfolding” value worked out at 1.52 kcal/mol/K. Besides, where the note is “pH 7, 52.6 °C, DSC, Mops 30 mM”, the “ddG of mutation (higher = less stable)” value was -2.8 kcal/mol and the “heat capacity change of unfolding” value is 1.52 kcal/mol/K. For the setting “pH 7, CD, Mops 30 mM”, the Tm was found to be 57.4 °C; the “change of melting temperature, mutant” value amounted to 9.6 °C; the “unfolding enthalpy (van 't Hoff)” value is 89 kcal/mol.

As to DVSGTVCLSALPPEATDTLNLIASDGPFPYSQDGVVFQNRESVLPTQSYGYYHEYTVITPGARTRGTRRIITGEATQEEYYTGDHYATFSLIDQTC, where the note is “pH 7, 52.6 °C, CD, Mops 30 mM”, the “ddG of mutation (higher = less stable)” value is 0.3 kcal/mol and the “heat capacity change of unfolding” value was 1.52 kcal/mol/K. For the same variant, for the setting “pH 7, 52.6 °C, DSC, Mops 30 mM”, the “ddG of mutation (higher = less stable)” value was 0.3 kcal/mol and the “heat capacity change of unfolding” value stood at 1.52 kcal/mol/K. For the same variant, under “pH 7, CD, Mops 30 mM”, the Tm was found to be 47 °C; the “change of melting temperature, mutant” value was -0.8 °C; the “unfolding enthalpy (van 't Hoff)” value was found to be 90 kcal/mol.

Turning to DVSGTVCLSALPPEATDTLNLIASDGPFPYSQDGVVFQNRESVLPTQSYGYYHEYTVITPGARTRGTRRIITGEATQENYYTGDHYATFSLIDQTC, the “ddG of mutation (higher = less stable)” value runs as follows: under setting [1], 1.2 kcal/mol; (pH 7, 52.6 °C, CD, Mops 30 mM) -1.8 kcal/mol; (pH 7, 52.6 °C, DSC, Mops 30 mM) -1.8 kcal/mol; under setting [2], -2.3 kcal/mol. Moreover, the “heat capacity change of unfolding” value reads like this: under setting [1], 1.52 kcal/mol/K; (pH 7, 52.6 °C, CD, Mops 30 mM) 1.52 kcal/mol/K; (pH 7, 52.6 °C, DSC, Mops 30 mM) 1.52 kcal/mol/K; under setting [2], 1.52 kcal/mol/K. Besides, the Tm worked out at 35.1 °C (pH 3, CD, Glycine 30 mM); 53.4 °C (pH 7, CD, Mops 30 mM); 46.3 °C (pH 8.5, CD, Mops 30 mM). In addition, the “change of melting temperature, mutant” value was -4.8 °C (pH 3, CD, Glycine 30 mM); 5.5 °C (pH 7, CD, Mops 30 mM); 7.6 °C (pH 8.5, CD, Mops 30 mM). In addition, the “unfolding enthalpy (van 't Hoff)” value is, setting by setting: (pH 3, CD, Glycine 30 mM) 69 kcal/mol; (pH 7, CD, Mops 30 mM) 96 kcal/mol; (pH 8.5, CD, Mops 30 mM) 65 kcal/mol.

In the case of DVSGTVCLSALPPEATDTLNLIASDGPFPYSQDGVVFQNRESVLPTQSYGYYHEYTVITPGARTRGTRRIITGEATQEFYYTGDHYATFSLIDQTC, the “ddG of mutation (higher = less stable)” value reads like this: under setting [1], 0.3 kcal/mol; (pH 7, 52.6 °C, DSC, Mops 30 mM) -3 kcal/mol; under setting [2], -3.7 kcal/mol. The “heat capacity change of unfolding” value reads like this: under setting [1], 1.52 kcal/mol/K; (pH 7, 52.6 °C, DSC, Mops 30 mM) 1.52 kcal/mol/K; under setting [2], 1.52 kcal/mol/K. Moreover, the Tm worked out at 38.5 °C (pH 3, CD, Glycine 30 mM); 57.8 °C (pH 7, CD, Mops 30 mM); 51.8 °C (pH 8.5, CD, Mops 30 mM). The “change of melting temperature, mutant” value (pH 3, CD, Glycine 30 mM) was -1.4 °C; the “change of melting temperature, mutant” value (pH 7, CD, Mops 30 mM) was found to be 10 °C; the “change of melting temperature, mutant” value (pH 8.5, CD, Mops 30 mM) is 13.1 °C. For the same variant, the “unfolding enthalpy (van 't Hoff)” value is 67 kcal/mol (pH 3, CD, Glycine 30 mM); 89 kcal/mol (pH 7, CD, Mops 30 mM); 82 kcal/mol (pH 8.5, CD, Mops 30 mM).

With DVSGTVCLSALPPEATDTLNLIASDGPFPYSQDGVVFQNRESVLPTQSYGYYHEYTVITPGARTRGTRRIITGEATQEWYYTGDHYATFSLIDQTC, for the setting “pH 7, 52.6 °C, CD, Mops 30 mM”, the “ddG of mutation (higher = less stable)” value is -2.3 kcal/mol and the “heat capacity change of unfolding” value came out at 1.52 kcal/mol/K. Where the note is “pH 7, 52.6 °C, DSC, Mops 30 mM”, the “ddG of mutation (higher = less stable)” value was -2.3 kcal/mol and the “heat capacity change of unfolding” value came to 1.52 kcal/mol/K. In addition, for the setting “pH 7, CD, Mops 30 mM”, the Tm worked out at 55.4 °C; the “change of melting temperature, mutant” value was determined as 7.6 °C; the “unfolding enthalpy (van 't Hoff)” value turned out to be 88 kcal/mol.

For DVSGTVCLSALPPEATDTLNLIASDGPFPYSQDGVVFQNRESVLPTQSYGYYHEYTVITPGARTRGTRRIITGEATQEYYYTGDHYATFSLIDQTC, where the note is “pH 7, 52.6 °C, CD, Mops 30 mM”, the “ddG of mutation (higher = less stable)” value is -2.9 kcal/mol and the “heat capacity change of unfolding” value came to 1.52 kcal/mol/K. For the setting “pH 7, CD, Mops 30 mM”, the Tm was 57.4 °C; the “change of melting temperature, mutant” value stood at 9.6 °C; the “unfolding enthalpy (van 't Hoff)” value came to 84 kcal/mol.

Regarding DVSGTVCLSALPPEATDTLNLIASDGPFPYSQDGVVFQNRESVLPTQSYGYYHEYTVITPGARTRGTRRIITGEATQEDYYTGDHYATFSLIDKTC, under setting [1], the “ddG of mutation (higher = less stable)” value is -0.2 kcal/mol and the “heat capacity change of unfolding” value came to 1.52 kcal/mol/K. Further, where the note is “pH 3, CD, Glycine 30 mM”, the Tm was found to be 40.8 °C; the “change of melting temperature, mutant” value stood at 0.9 °C; the “unfolding enthalpy (van 't Hoff)” value amounted to 64 kcal/mol. For the same variant, for the setting “pH 7, 52.6 °C, CD, Mops 30 mM”, the “ddG of mutation (higher = less stable)” value is -0.3 kcal/mol and the “heat capacity change of unfolding” value is 1.52 kcal/mol/K. Besides, for the setting “pH 7, CD, Mops 30 mM”, the Tm worked out at 48.6 °C; the “change of melting temperature, mutant” value came to 0.8 °C; the “unfolding enthalpy (van 't Hoff)” value came out at 96 kcal/mol. For the same variant, under setting [2], the “ddG of mutation (higher = less stable)” value was -1.1 kcal/mol and the “heat capacity change of unfolding” value was 1.52 kcal/mol/K.

For the origin of these results see FireProtDB (doi:10.1016/j.jmb.2005.09.091).
